From patent publication US20160311918A1, “Anti-Ron Monoclonal Antibodies as a Cytotoxic Drug Delivery System for Targeted Cancer Therapy” (TEXAS TECH UNIVERSITY SYSTEM, priority 2013, published 2016)

Experiments:
[1] = tested on: HT29-Luc2 xenograft tumor; test: HT29-luc2 mouse xenograft tumor model; type: in vivo; details: for tumor growth inhibited: five injection regimen
Experimental: Athymic nude mice (five mice per group) were subcutaneously inoculated with 5×10^6 HCT116, HT29, and SW620 cells followed by injection of 20 mg/kg Zt/g4-DM1 through tail vein. FIG. 4A: Tumor growth from HT29-luc2 or HCT116-luc2 cells was determined by measuring average photon intensity (left panel). SW620-derived tumor growth was monitored by measuring tumor volume (FIG. 4B) (right panel). FIG. 4C: Tumor images with photon emission or caliper measurement at day 16 are presented. The scale from minimal to maximal is set at 300 to 35,000 photons per second. The percentages of inhibition were calculated from the average photon emission (for HT29 and HCT116 cells) or tumor volume (for SW620 cells). FIG. 4D: Individual tumors from different groups were weighed at day 28. The percentages of inhibition were calculated by a formula: (average tumor weight from Zt/g4-DM1 treated group/average tumor weight from control mice)×100%;
FIGS. 5A to 5F show the evaluation of different doses of Zt/g4-DM1 on tumor growth and RON expression. FIG. 5A: Effect of multi-dose of Zt/g4-DM1 on tumor growth was tested in HT29 cell-induced tumors. Tumor-bearing mice were treated with different doses of Zt/g4-DM1 every four days for a total of five injections ( ? ). Tumor growth was determined by the average bioluminescence intensity. FIG. 5B: An IC50 value based on the average bioluminescence intensity from individual groups at day 31 was calculated using GraphPad Prism 6 software. FIG. 5C: Bioluminescence images of individual tumors from each group at day 31 are shown. The percentages of inhibition were calculated from the average photon emission. The color scale from minimal to maximal is set at 300 to 35,000 photons per second. FIG. 5D: Individual tumors from different groups were collected and weighed at day 31, 35, and 43, respectively. The percentages of inhibition were calculated as detailed in FIG. 4C. FIG. 5E: Samples of HT29 cell-derived xenograft tumors from both control and 15 mg/kg Zt/g4-DM1-treated mice at day 31 were processed for histological examination. […] FIG. 5F: Western blot analysis of RON expression in tumors samples from both control and 15 mg/kg Zt/g4-DM1-treated mice. Densitometry analysis was performed to determine the levels of RON expression;
(§1) Mouse xenograft CRC model and anti-RON ADC treatment: All mice studies were approved by the institutional animal care committee. Female athymic nude mice at 6 weeks of age (Taconic, Cranbury, N.J.) were injected with 5×10^6 HT29-Luc2, HCT116-luc2, or SW620 cells in the subcutaneous space of the right flank as previously described (18,33). Mice were randomized into different groups (five mice per group). […] The single-dose group received a tail vein injection of 20 mg/kg Zt/g4-DM1 in 0.1 ml PBS followed by observation for 28 days. The multi-dose study was performed by treating mice with Zt/g4-DM1 at 1, 3, 7, 10, and 15 mg/kg every four days for a total of five injections. Bioluminescence from individual tumors was measured every four days using Caliper IVIS image system (PerkinElmer). Tumor volumes from SW620-derived tumors were measured according to a formula: V=pi/6×1.58×(length×width)^3/2 (18,33). Animals were euthanized when tumor volumes exceeded 2000 mm^3 or if tumors became necrotic or ulcerated through the skin.
(§2) The inventors first determined the efficacy of a single dose of Zt/g4-DM1 at 20 mg/kg body weight on tumors derived from HCT116, HT29, and SW620 cells. Tumor growth by HCT116-luc2 and HT29-luc2 cells was measured by bioluminescence emitted from tumor cells. SW620-mediated tumors were evaluated by tumor volume (18,34).

[2] = tested on: HT29, HCT116, and SW620 cells; test: Cell cycle analysis by flow cytometry; type: cell-based, human; details: 5 μg/ml
[3] = tested on: three CRC cell lines (HCT116, HT29, SW620); type: cell-based, human; design: cell death: dose or concentration left out as unconfirmed
Experimental: Cell viability was determined by the MTS assay. […] Morphological changes were observed under the Olympus BK-41 inverted microscope and photographed. […] FIG. 3D: Cell death percentages were determined by the trypan blue exclusion method.
Cell viability and death assays: Cell viability 72 h after Zt/g4-DM1 treatment was determined by the MTT assay (22). Viable or dead cells were determined by the trypan blue exclusion assay. A total of 900 cells were counted from three individual wells to reach the percentages of dead cells.

[4] = tested on: CRC cell-mediated tumor growth; test: Mouse xenograft CRC models, single dose, all three lines; type: in vivo; details: single dose 20 mg/kg
Experimental: as §1
as §2, with “(18,34). […]” for “(18,34).”

[5] = 15 mg/kg every four days x5, day 31

B1: Zt/g4-DM1: anti-RON mouse mAb Zt/g4 conjugated to maytansinoid DM1 via non-reducible thioether linkage (SMCC), DAR about 4:1 (conjugate)
VH: EVQLQQSGAELVKPGASVKLSCTTSGFNIIDTYIHWVNQKPDQGLEWIGRIDPADGNRKSDPKFQVKATITVDTSSNTAYLQLSSLTSGDTAVYYCARGYGNLNAMDSWGQGTSVTVSS
VL: DIQMNQSPSSLSASLGDTITITCHASQNINVWLNWYQQKPGNIPKLLIYKASNLHTGVPSRFSGSGSGTGFTLTISSLQPEDIATYYCQQGQSYPLTFGGGTKLEIK
inhibition of tumor growth ([1]; 1 mg/kg every four days x5): no inhibition of tumor growth
inhibition of tumor growth ([1]; 3 mg/kg every four days x5): no inhibition of tumor growth
inhibition by average photon emission ([1]; 7 mg/kg every four days x5, day 19 to 43): more than 80%
inhibition by tumor weight ([1]; 7 mg/kg every four days x5, day 43): Significant inhibition was still observed
tumor growth inhibited ([1]; 7 mg/kg): more than 90%
inhibition by average photon emission ([1]; 10 mg/kg every four days x5, day 31): More than 95%
inhibition by tumor weight ([1]; 10 mg/kg every four days x5, day 43): Significant inhibition was still observed
tumor growth inhibited ([1]; 10 mg/kg): more than 90%
inhibition at average tumor weight [1, 5]: 90%
inhibition by average photon emission [1, 5]: More than 95%
average percentage of dead areas in a tumor mass ([1]; 15 mg/kg, day 31, H&E staining): 65%±7.4
RON expression in treated tumors ([1]; 15 mg/kg, day 31, Western blot, control 100%): 16.44%±5.75
tumor growth inhibited ([1]; 15 mg/kg): more than 90%
IC50 dose (dose achieving 50% tumor inhibition) ([1]; multi-dose, average photons at day 31): 5.01 mg/kg
inhibition by average bioluminescence intensity ([1]; single dose 20 mg/kg, day 16): More than 95%
inhibition rate by average tumor weight ([1]; single dose 20 mg/kg, day 28): 50.98%
time at which cell cycle profile changes were observed [2]: ≤ 3 h
effect on cell cycle ([2]; three CRC cell lines): dramatic increase in G2/M phase
IC50 cell death [3]: 5 to 7 µg/mL
cell death ([3]; 72 h): More than 50%
duration of tumor growth delay [4]: up to 20 days
duration of efficacy without signs of tumor regrowth ([4]; day 4 to day 16): up to 12 days
